Patent US20070224205A1

Molecular target: Toll-like Receptor 5 (UniProt O60602)
Test: cell-based or functional assay

B1: ngSTF2.HA1-1His(PR8) (protein)
chain: AQVINTNSLSLLTQNNLQKSQSALGTAIERLSSGLRINSAKDDAAGQAIANRFTANIKGLTQASRNANDGISIAQTTEGALNEINNNLQRVRELAVQSAQSTNSQSDLDSIQAEITQRLNEIDRVSGQTQFNGVKVLAQDNTLTIQVGANDGETIDIDLKQINSQTLGLDSLNVQKAYDVKDTAVTTKAYANQGTTLDVSGLDDAAIKAATGGTQGTASVTGGAVKFDADNNKYFVTIGGFTGADAAKNGDYEVNVATDGTVTLAAGATKTTMPAGATTKTEVQELKDTPAVVSADAKNALIAGGVDATDANGAELVKMSYTDKNGKTIEGGYALKAGDKYYAADYDEATGAIKAKTTSYTAADGTTKTAANQLGGVDGKTEVVTIDGKTYQASKAAGHDFKAQPELAEAAAKTTENPLQKIDAALAQVDALRSDLGAVQNRFNSAITNLGNTVNQLSEARSRIEDSDYATEVSQMSRAQILQQAGTSVLAQANQVPQNVLSLLASGSGSGSSHNGKLCRLKGIAPLQLGKCNIAGWLLGNPECDPLLPVRSWSYIVETPNSENGICYPGDFIDYEELREQLSSVSSFERFEIFPKESSWPNHNTNGVTAACSHEGKSSFYRNLLWLTEKEGSYPKLKNSYVNKKGKEVLVLWGIHHPPNSKEQQNLYQNENAYVSVVTSNYNRRFTPEIAERPKVRDQAGRMNYYWTLLKPGDTIIFEANGNLIAPMYAFALSRGFGSGIITSQASMHECNTKCQTPLGAIQSSLPYQNIHPVTIGECPKYVRHHHHHH
  TLR activity (EC50, ng/ml); IL-8 secretion by HEK293 cells: 30 ng/mL
